Test results taken from patent publication US20210181204A1 (SYNGENTA PARTICIPATIONS, published 2021).
Where a chain is given by its changes, count along the chain named. In names and notes the source's numbering stands.

Assays:
[1] = biological target: T1, mCry3A insecticidal protein (Bacillus thuringiensis subsp. …, UniProt P0A379 48-644, limits assumed); experiment: direct ELISA: mCry3A coated at 1 ug/ml, RGS-His HRP detection
T1 construct: also called modified Cry3A
T1 sequence: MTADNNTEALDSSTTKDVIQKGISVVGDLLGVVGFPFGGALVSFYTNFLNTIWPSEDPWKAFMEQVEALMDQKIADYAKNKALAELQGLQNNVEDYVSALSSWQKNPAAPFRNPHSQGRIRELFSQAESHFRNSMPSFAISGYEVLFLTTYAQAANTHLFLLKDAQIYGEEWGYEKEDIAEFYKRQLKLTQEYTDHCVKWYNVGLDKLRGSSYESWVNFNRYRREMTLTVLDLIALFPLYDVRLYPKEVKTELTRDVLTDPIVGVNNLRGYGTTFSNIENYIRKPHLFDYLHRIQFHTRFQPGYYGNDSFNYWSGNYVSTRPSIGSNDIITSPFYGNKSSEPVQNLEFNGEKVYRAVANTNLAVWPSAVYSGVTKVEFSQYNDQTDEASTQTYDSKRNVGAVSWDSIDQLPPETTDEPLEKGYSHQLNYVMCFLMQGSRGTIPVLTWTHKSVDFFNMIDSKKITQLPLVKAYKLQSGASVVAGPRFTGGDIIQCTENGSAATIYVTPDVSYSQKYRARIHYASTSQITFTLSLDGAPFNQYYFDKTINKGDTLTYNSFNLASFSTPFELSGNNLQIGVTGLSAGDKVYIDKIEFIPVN

[2] = biological target: eCry3.1Ab hybrid insecticidal protein; experiment: direct ELISA: eCry3.1Ab coated at 1 ug/ml, RGS-His HRP detection
[3] = biological target: T1, mCry3A insecticidal protein; experiment: direct ELISA: protein coated at 500 ng/ml, 10 nM tagged synNAPS with SA-AP
[4] = biological target: Cry1Ab.1Ca insecticidal protein; experiment: direct ELISA, coated protein, SA-AP, 405 nm
[5] = biological target: eCry3.1Ab hybrid insecticidal protein; experiment: direct ELISA, coated protein, SA-AP, 405 nm
[6] = biological target: Cry1Aa insecticidal protein (Bacillus thuringiensis subsp. aizawai, UniProt P0A367 12-1176); experiment: direct ELISA, coated protein, SA-AP, 405 nm
[7] = biological target: T2, Cry1Ab insecticidal protein (Bacillus thuringiensis, UniProt P0A370 1-615); experiment: direct ELISA, coated protein, SA-AP, 405 nm
[8] = biological target: Cry1Ai insecticidal protein; experiment: direct ELISA, coated protein, SA-AP, 405 nm
[9] = biological target: T2, Cry1Ab insecticidal protein; experiment: direct ELISA: Cry1Ab coated at 1 ug/ml, RGS-His HRP detection
[10] = biological target: T1, mCry3A insecticidal protein; experiment: direct ELISA, coated protein, SA-AP, 405 nm

B1: synNAPS-9 ligand (designed binder)
chain: MVKVKFAQGGEEKEVDTSKIYRVPRHGKIVFFMYDDNGKGGFGHVTEKDAPKELLDMLARAEREKK
Binding (OD 450 nm) [1]: 2.5 OD 450 nm

B2: synNAPS9 variant F31A (designed binder)
chain: RGSHHHHHHGSMVKVKFAQGGEEKEVDTSKIYRVPRHGKIVAFMYDDNGKGGFGHVTEKDAPKELLDMLARAEREKK
Binding (OD 450 nm) [1]: 1.4 OD 450 nm

B3: synNAPS9 variant F42A (designed binder)
chain: B2 chain with A42F, F53A
Binding (OD 450 nm) [1]: 0.2 OD 450 nm

B4: synNAPS9 variant G9A (designed binder)
chain: B2 chain with G20A, A42F
Binding (OD 450 nm) [1]: 1.5 OD 450 nm

B5: synNAPS9 variant G40A (designed binder)
chain: B2 chain with A42F, G51A
Binding (OD 450 nm) [1]: 1.7 OD 450 nm

B6: synNAPS9 variant H26A (designed binder)
chain: B2 chain with H37A, A42F
Binding (OD 450 nm) [1]: 1.8 OD 450 nm

B7: synNAPS9 variant P24A (designed binder)
chain: B2 chain with P35A, A42F
Binding (OD 450 nm) [1]: 0.5 OD 450 nm

B8: synNAPS9 variant R22A (designed binder)
chain: B2 chain with R33A, A42F
Binding (OD 450 nm) [1]: 1 OD 450 nm

B9: synNAPS9 variant Y21A (designed binder)
chain: B2 chain with Y32A, A42F
Binding (OD 450 nm) [1]: 1.8 OD 450 nm

B10: synNAPS13 variant K7A (designed binder)
chain: RGSHHHHHHGSMVKVKFARWGEEKEVDTSKILHVLRVGKYVRFSYDDNGKLGAGYVTEKDAPKELLDMLARAEREKK
Binding (OD 450 nm) [2]: 3 OD 450 nm

B11: synNAPS13 variant L21A (designed binder)
chain: B10 chain with A18K, L32A
Binding (OD 450 nm) [2]: 1.8 OD 450 nm

B12: synNAPS13 variant L24A (designed binder)
chain: B10 chain with A18K, L35A
Binding (OD 450 nm) [2]: 1.1 OD 450 nm

B13: synNAPS13 variant L40A (designed binder)
chain: B10 chain with A18K, L51A
Binding (OD 450 nm) [2]: 0.5 OD 450 nm

B14: synNAPS13 variant R8A (designed binder)
chain: B10 chain with A18K, R19A
Binding (OD 450 nm) [2]: 2.4 OD 450 nm

B15: synNAPS13 variant S33A (designed binder)
chain: B10 chain with A18K, S44A
Binding (OD 450 nm) [2]: 4.1 OD 450 nm

B16: synNAPS13 variant T46A (designed binder)
chain: B10 chain with A18K, T57A
Binding (OD 450 nm) [2]: 4.1 OD 450 nm

B17: synNAPS13 variant V26A (designed binder)
chain: B10 chain with A18K, V37A
Binding (OD 450 nm) [2]: 1.8 OD 450 nm

B18: synNAPS13 variant W9A (designed binder)
chain: B10 chain with A18K, W20A
Binding (OD 450 nm) [2]: 1 OD 450 nm

B19: synNAPS13 variant Y29A (designed binder)
chain: B10 chain with A18K, Y40A
Binding (OD 450 nm) [2]: 2.6 OD 450 nm

B20: synNAPS-6tag ligand (designed binder)
chain: MRGSHHHHHHGSVKVKFMRWGEEKEVDTSKITYVTRWGKTVIFYYDDNGKKGHGSVLEKDAPKELLDMLARAEREKKLGSGLNDIFEAQKIEWH
modifications: in vivo biotinylation (E. coli BirA strain) on the C-terminal avidin-tag
notes: also called tagged synNAPS 6
Binding to Insecticidal Protein (read at 405 nm) [3]: 1.1 absorbance 405 nm
binding result [4]: no binding (tested: 10 nM)
binding result [5]: no binding (tested: 10 nM)
binding result [6]: no binding (tested: 10 nM)
binding result [7]: no binding (tested: 10 nM)
binding result [8]: no binding (tested: 10 nM)

B21: synNAPS-2 ligand (designed binder)
chain: MVKVKFKYKGEEKEVDTSKIVWIGRFGKSVYFRYDDNGKTGAGRVYEKDAPKELLDMLARAEREKK
Binding (OD 450 nm) [9]: 4 OD 450 nm

B22: synNAPS2 variant K7A (designed binder)
chain: RGSHHHHHHGSMVKVKFAYKGEEKEVDTSKIVWIGRFGKSVYFRYDDNGKTGAGRVYEKDAPKELLDMLARAEREKK
Binding (OD 450 nm) [9]: 4 OD 450 nm

B23: synNAPS2 variant F26A (designed binder)
chain: B22 chain with A18K, F37A
Binding (OD 450 nm) [9]: 3.7 OD 450 nm

B24: synNAPS2 variant G24A (designed binder)
chain: B22 chain with A18K, G35A
Binding (OD 450 nm) [9]: 4 OD 450 nm

B25: synNAPS2 variant I23A (designed binder)
chain: B22 chain with A18K, I34A
Binding (OD 450 nm) [9]: 3.2 OD 450 nm

B26: synNAPS2 variant K9A (designed binder)
chain: B22 chain with A18K, K20A
Binding (OD 450 nm) [9]: 4 OD 450 nm

B27: synNAPS2 variant R33A (designed binder)
chain: B22 chain with A18K, R44A
Binding (OD 450 nm) [9]: 2.2 OD 450 nm

B28: synNAPS2 variant T40A (designed binder)
chain: B22 chain with A18K, T51A
Binding (OD 450 nm) [9]: 4 OD 450 nm

B29: synNAPS2 variant V21A (designed binder)
chain: B22 chain with A18K, V32A
Binding (OD 450 nm) [9]: 3.8 OD 450 nm

B30: synNAPS2 variant Y8A (designed binder)
chain: B22 chain with A18K, Y19A
Binding (OD 450 nm) [9]: 2.4 OD 450 nm

B31: synNAPS2 variant Y46A (designed binder)
chain: B22 chain with A18K, Y57A
Binding (OD 450 nm) [9]: 3.5 OD 450 nm

B32: synNAPS-1tag ligand (designed binder)
chain: MRGSHHHHHHGSVKVKFGPWGEEKEVDTSKIVDVWRWGKYVDFFYDDNGKVGIGSVTEKDAPKELLDMLARAEREKKLGSGLNDIFEAQKIEWH
modifications: in vivo biotinylation (E. coli BirA strain) on the C-terminal avidin-tag
notes: also called tagged synNAPS 1
binding result [4]: no binding (tested: 10 nM)
binding result [10]: no binding (tested: 10 nM)
binding result [5]: no binding (tested: 10 nM)
binding result [6]: no binding (tested: 10 nM)
binding result [7]: no binding (tested: 10 nM)
binding result [8]: no binding (tested: 10 nM)

B33: synNAPS-10tag ligand (designed binder)
chain: MRGSHHHHHHGSVKVKFLMKGEEKEVDTSKIKWVNRHGKYVAFYYDDNGKTGGGEVREKDAPKELLDMLARAEREKKLGSGLNDIFEAQKIEWH
modifications: in vivo biotinylation (E. coli BirA strain) on the C-terminal avidin-tag
notes: also called tagged synNAPS 10
binding result [4]: no binding (tested: 10 nM)
binding result [10]: no binding (tested: 10 nM)
binding result [5]: no binding (tested: 10 nM)
binding result [6]: no binding (tested: 10 nM)
binding result [7]: no binding (tested: 10 nM)
binding result [8]: no binding (tested: 10 nM)

B34: synNAPS-12tag ligand (designed binder)
chain: MRGSHHHHHHGSVKVKFKLTGEEKEVDTSKIQWVARFGKFVDFLYDDNGKTGWGWVYEKDAPKELLDMLARAEREKKLGSGLNDIFEAQKIEWH
modifications: in vivo biotinylation (E. coli BirA strain) on the C-terminal avidin-tag
notes: also called tagged synNAPS 12
binding result [4]: no binding (tested: 10 nM)
binding result [10]: no binding (tested: 10 nM)
binding result [5]: no binding (tested: 10 nM)
binding result [6]: no binding (tested: 10 nM)
binding result [7]: no binding (tested: 10 nM)
binding result [8]: no binding (tested: 10 nM)

B35: synNAPS-14tag ligand (designed binder)
chain: B34 chain with L19Y, T20K, Q32I, W33F, A35Y, D42M, L44I, W53H, W55D, Y57R
modifications: in vivo biotinylation (E. coli BirA strain) on the C-terminal avidin-tag
notes: also called tagged synNAPS 14
binding result [4]: no binding (tested: 10 nM)
binding result [10]: no binding (tested: 10 nM)
binding result [5]: no binding (tested: 10 nM)
binding result [6]: no binding (tested: 10 nM)
binding result [7]: no binding (tested: 10 nM)
binding result [8]: no binding (tested: 10 nM)
